Assay results published in publication PMC3771576.

Target: rYbx1 (wild type) (Danio rerio (zebrafish)) (UniProt B5DE31)
Assay: EMSA
Conditions: RNA EMSA; binding buffer and temperature not given; extract lysis buffer 20 mM Tris pH 8.0, 100 mM NaCl, 0.1 mM EDTA, 1 mM 6-aminohexanoic acid, 1 mM PMSF, 25% …

rYbx1 (wild type) (Danio rerio (zebrafish)), sequence (B5DE31 whole entry): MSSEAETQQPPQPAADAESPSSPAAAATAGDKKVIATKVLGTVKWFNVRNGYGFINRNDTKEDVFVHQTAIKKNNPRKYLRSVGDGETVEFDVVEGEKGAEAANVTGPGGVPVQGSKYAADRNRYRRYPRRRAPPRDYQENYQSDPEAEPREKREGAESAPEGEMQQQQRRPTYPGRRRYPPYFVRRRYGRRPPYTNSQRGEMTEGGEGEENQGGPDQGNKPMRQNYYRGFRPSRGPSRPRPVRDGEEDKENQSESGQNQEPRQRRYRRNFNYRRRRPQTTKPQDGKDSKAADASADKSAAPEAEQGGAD

Sequence | binding
GGGAGACCGGCCGCACAACCAUUCACGCAAAAGACAACACACGCGUCGUGGAUGAAGUAAUCCUCUUUGCAAAUAUGUAAAGCUGUAUAUUUCUAAUGUAAAUA [wnt8a.1 probe] | no binding
GGGAGAUAUUUUAUGAGAUUUUAAGAUAUAAUUUUCUGUAUAUUUCUGCAAGCAAAAUGUAAAUUGACGCUCUAUAUAAGACACAUGGGCUUUCUCGUUCCCAC [wnt8a.2 probe] | no binding
GGGAGAAGUGGAUGCAGAUGAACAUGACUUAAUUUUUAAAUGCACAAUUUGUUUAUUACAAUUUUUCUUUUUUUAGGUGUGGAUUAAUGCAAAAUUAGGCUUCUUUU [vg1.1 probe] | no binding
GGGAGAUUGUAUUUUUUCAUGCACAGAUCACUUGACAGUAUGCAGUGUUUCACGAUGAGGUUUAAAUGUUGUGUUUUAUGGAACUUAUUUAAGGCAAAUAUUUU [wnt8a.4 probe] | no binding
GGGAGAACAAUUUUUCUUUUUUUAGGUGUGGAUUAAUGCAAAAUUAGGCUUCUUUUUAGAUGCAGAGAAUGUGCAUGUAGAUGCUGUUAAAGUAACUUUUUAUAAU [vg1.2 probe] | no binding
GGGAGAUGUCAAUUGAAUUCAUUGAAGUUCUAUUUUGAAGUUCAUUAUUUGCACUUUUUCGUUCUCGACAUAAGAUCACAGAUUUUGUUGCUCUCAAAAAAUGU [wnt8a.3 probe] | no binding
GGGAGAGAUGCAGAGAAUGUGCAUGUAGAUGCUGUUAAAGUAACUUUUUAUAAUUCAUUGUAAUGUAAUAAUAAAAACUUUUACUAUGGGAUUCCUUUUUUUUC [vg1.3 probe] | no binding
